These results are taken from doi:10.1101/2023.07.25.550481.

For the series, the target named is T1, ZBTB48 ZnF10-11-C (Homo sapiens, UniProt P10074 548-620).
T1 sequence: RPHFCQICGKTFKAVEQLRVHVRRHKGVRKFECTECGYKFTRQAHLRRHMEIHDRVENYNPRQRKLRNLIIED
The series can be described thus: crystal structure.

B1: CIITA e.2 crystal duplex (dsDNA)
DNA 1: CACAAGTGAGGGATCA
DNA 2: GTGATCCCTCACTTGT
Take B1: the binding result is “binds”.
